# Experimental data taken from patent US20170327598A1, “SINGLE DOMAIN ANTIBODIES DIRECTED AGAINST INTRACELLULAR ANTIGENS” (SINGH MOLECULAR MEDICINE, LLC, priority 2014, published 2017).
# Values joined by “and” are separate entries in the source; they are usually repeats but may differ in a detail not shown here. Equal values may be shown once.
# B1: H.VHH14: anti-STAT3 sdAb VHH14 (SEQ ID NO:4), presumably the form produced in mammalian cells (protein)
# VHH: QVQLVESGGGSVQAGGSLRLSCVASTYTGCMGWFRQAPGKEREGVAALSSRGFAGHYTDSVKGRFSISRDYVKNAVYLQMNTVKPEDAAMYYCAAREGWECGETWLDRTAGGHTYWGQGTLVTVSS
# modifications: Camelid
# Experiments:
# endogenous STAT3 = biological target: T1, endogenous STAT3 (Homo sapiens, UniProt P40763); assay: Immunoprecipitation of endogenous STAT3 from MDA-MB-231 lysate, Western blot; type: binding; conditions: FIG. 3
# T1 construct: endogenous STAT3 immunoprecipitated with all sdAbs tested at varying amounts; endogenous in cells
# Method: The specificity of STAT3 sdAbs was assayed in human breast cancer cells. […] The cells were then disrupted in freshly prepared ice-cold lysis buffer (20 mM HEPES, pH 7.9, 400 mM NaCl, 0.1% NP-40, 10% glycerol, 1 mM sodium vanadate, 1 mM sodium fluoride, 1 mM dithiothreitol, 1 mM phenylmethylsulfonyl fluoride, 10 μg/mL aprotinin, 10 μg/mL leupeptin) for 45 minutes on ice. Lysates were then centrifuged, the supernatant collected, and protein concentration was determined using a modified Lowry method (Bio Rad, Hercules, Calif.). Total protein (1 mg) was incubated with 1.5 mg of Dynabeads (Invitrogen) with sdAbs against STAT3, a positive control (STAT3, cat#SC-482, Santa Cruz Biotechnology, Dallas, Tex.), or negative control (STAT-1, cat#9172, Cell Signaling, Danvers, Mass.) for 1 hour at 4° C. Beads were then washed. Following the final wash, 60 μl of lysis buffer was added, and the resulting supernatant was subject to Western blot analysis. Briefly, samples were separated on 10% polyacrylamide gels and transferred to a nitrocellulose membrane. The membranes were blocked, then incubated with appropriate primary and secondary antibodies. Anti-STAT3 antibody, used as a positive control, was from Cell Signaling (Cat#4904, Danvers, Mass.). The chemiluminescence reaction was performed using the ECL system from Santa Cruz Biotechnology (Dallas, Tex.).
# MDA-MB-231 cells = assay: MTT proliferation assay, MDA-MB-231; type: cell-based, human
# PANC-1 cells = assay: MTT proliferation assay, PANC-1; type: cell-based, human; conditions: for Mean Absorbance (570 nM) ± S.E.: single experiments 1-3
# T1 sequence (P40763 whole entry): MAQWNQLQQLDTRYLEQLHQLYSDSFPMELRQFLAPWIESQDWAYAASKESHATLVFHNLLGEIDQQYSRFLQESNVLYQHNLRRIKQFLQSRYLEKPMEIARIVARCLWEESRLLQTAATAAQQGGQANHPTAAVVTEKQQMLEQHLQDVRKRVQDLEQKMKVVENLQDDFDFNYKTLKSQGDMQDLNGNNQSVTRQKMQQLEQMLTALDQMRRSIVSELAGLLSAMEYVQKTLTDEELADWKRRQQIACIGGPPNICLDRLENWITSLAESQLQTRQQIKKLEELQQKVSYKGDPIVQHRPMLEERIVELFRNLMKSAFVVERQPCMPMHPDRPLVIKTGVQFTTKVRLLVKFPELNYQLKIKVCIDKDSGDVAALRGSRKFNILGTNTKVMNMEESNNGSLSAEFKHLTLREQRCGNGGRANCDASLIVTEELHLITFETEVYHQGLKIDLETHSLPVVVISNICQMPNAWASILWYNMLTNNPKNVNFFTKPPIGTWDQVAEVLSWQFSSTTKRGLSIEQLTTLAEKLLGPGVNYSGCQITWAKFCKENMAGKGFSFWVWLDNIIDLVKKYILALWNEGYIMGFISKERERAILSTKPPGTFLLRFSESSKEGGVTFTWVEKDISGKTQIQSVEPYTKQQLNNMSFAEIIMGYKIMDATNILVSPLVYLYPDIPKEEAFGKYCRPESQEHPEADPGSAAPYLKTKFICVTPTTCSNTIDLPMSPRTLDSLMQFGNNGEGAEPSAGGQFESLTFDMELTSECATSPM
molecule,measurement,setting,value
"STAT-1: negative control in immunoprecipitation (STAT-1, cat#9172, Cell Signaling) [reference compound]",immunoprecipitation of endogenous STAT3,endogenous STAT3,no band
B1,% Inhibition,"MDA-MB-231 cells; MDA-MB-231, 3 days of treatment, 1.0 μg/ml",0.5%
same,% Inhibition,"MDA-MB-231 cells; MDA-MB-231, 5 days of treatment, 0.5 μg/ml",9.5%
same,% Inhibition,"MDA-MB-231 cells; MDA-MB-231, 5 days of treatment, 1.0 μg/ml",4.9%
same,% Inhibition,"MDA-MB-231 cells; MDA-MB-231, 5 days of treatment, 10.0 μg/ml",18.2%
same,% Inhibition,"MDA-MB-231 cells; MDA-MB-231, 5 days of treatment, 100.0 μg/ml",18.9%
same,Mean Absorbance (570 nM) ± S.E.,"MDA-MB-231 cells; MDA-MB-231, Day 3, 0.5 μg/ml",0.485 ± 0.040
same,Mean Absorbance (570 nM) ± S.E.,"MDA-MB-231 cells; MDA-MB-231, Day 3, 1.0 μg/ml",0.402 ± 0.017
same,Mean Absorbance (570 nM) ± S.E.,"MDA-MB-231 cells; MDA-MB-231, Day 3, 10.0 μg/ml",0.588 ± 0.020
same,Mean Absorbance (570 nM) ± S.E.,"MDA-MB-231 cells; MDA-MB-231, Day 3, 100 μg/ml",0.416 ± 0.030
same,Mean Absorbance (570 nM) ± S.E.,"MDA-MB-231 cells; MDA-MB-231, Day 5, 0.5 μg/ml",0.890 ± 0.021
same,Mean Absorbance (570 nM) ± S.E.,"MDA-MB-231 cells; MDA-MB-231, Day 5, 1.0 μg/ml",0.935 ± 0.037
same,Mean Absorbance (570 nM) ± S.E.,"MDA-MB-231 cells; MDA-MB-231, Day 5, 10.0 μg/ml",0.804 ± 0.015
same,Mean Absorbance (570 nM) ± S.E.,"MDA-MB-231 cells; MDA-MB-231, Day 5, 100 μg/ml",0.797 ± 0.010
same,"Mean Absorbance (570 nM) ± S.E., Overall Mean","PANC-1 cells; PANC-1, Day 3, 10.0 μg/ml",1.089 ± 0.085
same,Mean Absorbance (570 nM) ± S.E.,"PANC-1 cells; PANC-1, Day 3, 10.0 μg/ml",0.920 ± 0.133 and 1.183 ± 0.114 and 1.163 ± 0.044
same,"Mean Absorbance (570 nM) ± S.E., Overall Mean","PANC-1 cells; PANC-1, Day 3, 100 μg/ml",0.906 ± 0.054
same,Mean Absorbance (570 nM) ± S.E.,"PANC-1 cells; PANC-1, Day 3, 100 μg/ml",0.808 ± 0.239 and 0.993 ± 0.088 and 0.916 ± 0.088
same,"Mean Absorbance (570 nM) ± S.E., Overall Mean","PANC-1 cells; PANC-1, Day 5, 10.0 μg/ml",1.368 ± 0.247
same,Mean Absorbance (570 nM) ± S.E.,"PANC-1 cells; PANC-1, Day 5, 10.0 μg/ml",1.859 ± 0.033 and 1.165 ± 0.015 and 1.081 ± 0.103
same,"Mean Absorbance (570 nM) ± S.E., Overall Mean","PANC-1 cells; PANC-1, Day 5, 100 μg/ml",0.754 ± 0.333
same,immunoprecipitation of endogenous STAT3,endogenous STAT3,immunoprecipitated
